The values that follow come from paper PMC9352680, “A comprehensive thermodynamic model for RNA binding by the Saccharomyces cerevisiae Pumilio protein PUF4”.

T1: PUF4 RNA-binding domain (Saccharomyces cerevisiae, UniProt P25339 537-888)
T1 sequence: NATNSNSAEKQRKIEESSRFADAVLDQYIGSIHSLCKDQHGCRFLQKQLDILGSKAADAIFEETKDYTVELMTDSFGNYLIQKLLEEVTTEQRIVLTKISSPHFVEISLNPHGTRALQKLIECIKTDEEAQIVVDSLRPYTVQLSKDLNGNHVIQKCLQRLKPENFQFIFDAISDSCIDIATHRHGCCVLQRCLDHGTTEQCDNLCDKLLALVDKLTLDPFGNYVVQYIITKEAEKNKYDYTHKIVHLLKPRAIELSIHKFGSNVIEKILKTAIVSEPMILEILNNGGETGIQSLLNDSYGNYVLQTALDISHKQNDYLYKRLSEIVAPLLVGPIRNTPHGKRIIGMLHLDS

B1: Ic_S2_P3E.1_K3.1_C3.1_H3.1_A3.1_[T5A]_F3.1_T3.1 (ssRNA)
RNA: UUUGAUUAAUAUGAUAUCGUUCUUUCUUGUAAAUAUUCUUUCUCGAUAUCAUAUUAAUCUUU
B2: Ib_S2_P3E.1_K3.1_C3.1_H3.1_[T1A]_A3.1_[A6G]_F3.1_T3.1 (ssRNA)
RNA: UUUGAUUAAUAUGAUAUCGUUCUUUCUAGUAUGUAUUCUUUCUCGAUAUCAUAUUAAUCUUU
B3: Ie_S4_P3E.2_K3.1_C3.2_[+-1CCC]_H3.1_A3.1_F3.1_T3.2 (ssRNA)
RNA: UUUGACAACUGAUCGUUCUUUCUCUCCCUGUAUAUAUAUUCUUUCUCGAUCAGUUGUCUUU
B4: Ie_S4_P3E.2_K3.1_C3.2_H3.1_[+1TCC]_A3.1_F3.1_T3.2 (ssRNA)
RNA: UUUGACAACUGAUCGUUCUUUCUCUUUCCGUAUAUAUAUUCUUUCUCGAUCAGUUGUCUUU
B5: Ie_S4_P3E.2_K3.1_C3.2_H3.1_[+1CTT]_A3.1_F3.1_T3.2 (ssRNA)
RNA: UUUGACAACUGAUCGUUCUUUCUCUUCUUGUAUAUAUAUUCUUUCUCGAUCAGUUGUCUUU
B6: Ie_S4_P3E.2_K3.1_C3.2_[+-1CTT]_H3.1_A3.1_F3.1_T3.2 (ssRNA)
RNA: UUUGACAACUGAUCGUUCUUUCUCUCUUUGUAUAUAUAUUCUUUCUCGAUCAGUUGUCUUU
B7: Ie_S4_P3E.2_K3.1_C3.2_[+-1TTT]_H3.1_A3.1_F3.1_T3.2 (ssRNA)
RNA: UUUGACAACUGAUCGUUCUUUCUCUUUUUGUAUAUAUAUUCUUUCUCGAUCAGUUGUCUUU
B8: Ie_S4_P3E.2_K3.1_C3.2_[+-1CCT]_H3.1_A3.1_F3.1_T3.2 (ssRNA)
RNA: UUUGACAACUGAUCGUUCUUUCUCUCCUUGUAUAUAUAUUCUUUCUCGAUCAGUUGUCUUU
B9: Ie_S4_P3E.2_K3.1_C3.2_H3.1_[+1CCT]_A3.1_F3.1_T3.2 (ssRNA)
RNA: UUUGACAACUGAUCGUUCUUUCUCUUCCUGUAUAUAUAUUCUUUCUCGAUCAGUUGUCUUU
B10: Ie_S4_P3E.2_K3.1_C3.2_H3.1_[+1TC]_A3.1_F3.1_T3.2 (ssRNA)
RNA: UUUGACAACUGAUCGUUCUUUCUCUUUCGUAUAUAUAUUCUUUCUCGAUCAGUUGUCUUU
B11: Ie_S4_P3E.2_K3.1_C3.2_H3.1_[+2CT]_A3.1_F3.1_T3.2 (ssRNA)
RNA: UUUGACAACUGAUCGUUCUUUCUCUUGCUUAUAUAUAUUCUUUCUCGAUCAGUUGUCUUU
B12: Ie_S4_P3E.2_K3.1_C3.2_[+-1CCTC]_H3.1_A3.1_F3.1_T3.2 (ssRNA)
RNA: UUUGACAACUGAUCGUUCUUUCUCUCCUCUGUAUAUAUAUUCUUUCUCGAUCAGUUGUCUUU
B13: Ie_S4_P3E.2_K3.1_C3.2_H3.1_[+1TTCC]_A3.1_F3.1_T3.2 (ssRNA)
RNA: UUUGACAACUGAUCGUUCUUUCUCUUUUCCGUAUAUAUAUUCUUUCUCGAUCAGUUGUCUUU
B14: Ie_S4_P3E.2_K3.1_C3.2_H3.1_[+1CCTC]_A3.1_F3.1_T3.2 (ssRNA)
RNA: UUUGACAACUGAUCGUUCUUUCUCUUCCUCGUAUAUAUAUUCUUUCUCGAUCAGUUGUCUUU
B15: Ie_S4_P3E.2_K3.1_C3.2_[+-1CCCT]_H3.1_A3.1_F3.1_T3.2 (ssRNA)
RNA: UUUGACAACUGAUCGUUCUUUCUCUCCCUUGUAUAUAUAUUCUUUCUCGAUCAGUUGUCUUU
B16: Ie_S4_P3E.2_K3.1_C3.2_[+-1CTCTC]_H3.1_A3.1_F3.1_T3.2 (ssRNA)
RNA: UUUGACAACUGAUCGUUCUUUCUCUCUCUCUGUAUAUAUAUUCUUUCUCGAUCAGUUGUCUUU
B17: Ie_S4_P3E.2_K3.1_C3.2_H3.1_[+1TTCCT]_A3.1_F3.1_T3.2 (ssRNA)
RNA: UUUGACAACUGAUCGUUCUUUCUCUUUUCCUGUAUAUAUAUUCUUUCUCGAUCAGUUGUCUUU
B18: Ie_S4_P3E.2_K3.1_C3.2_H3.1_[+1CCTCT]_A3.1_F3.1_T3.2 (ssRNA)
RNA: UUUGACAACUGAUCGUUCUUUCUCUUCCUCUGUAUAUAUAUUCUUUCUCGAUCAGUUGUCUUU

In the data set the target is T1, PUF4 RNA-binding domain. Put plainly: Mg; RNA-MaP; 20 mM Na-HEPES pH 7.4, 30 mM KOAc, 0.75 mM MgCl2, 0.1% Tween-20, 5% glycerol, 0.1 mg/mL BSA, 2 mM DTT; 25 C; 0.0125-409.6 nM protein. The note with it: tags: N-His6-TEV cleaved; C-SNAP kept, Cy3B-labelled; label: tethered on chip by stalled RNA polymerase.
As usually defined, the Kd is the concentration at which binding is half-saturated. Molecule B1 came in with a Kd of 14.9 nM.

B2 had a Kd of 257 nM.

As for B3, the Kd was found to be 0.986 nM.

With B4, the Kd stood at 25.7 nM. Compared with the last molecule, the Kd is about 26-fold higher.

B5 came in with an equilibrium dissociation constant (Kd) of 0.982 nM.

B6 returned a Kd of 1.24 nM.

The molecule B7 showed a Kd of 1.03 nM.

B8 registered a Kd of 0.625 nM.

In turn, B9 gave an equilibrium dissociation constant (Kd) of 1.07 nM.

As for B10, the affinity, expressed as Kd, was 50.6 nM.

B11: the dissociation constant Kd was 60.8 nM.

Take B12: the Kd worked out at 1.06 nM.

B13 had a Kd of 45.7 nM.

Regarding B14, the dissociation constant (Kd) worked out at 64 nM.

In turn, B15 registered a dissociation constant (Kd) of 0.775 nM.

The molecule B16 displayed an equilibrium dissociation constant (Kd) of 0.676 nM.

With B17, binding was put at a Kd of 1.16 nM.

Molecule B18 returned an equilibrium dissociation constant (Kd) of 0.898 nM.
